B1: C22orf31 (parent)
chain: YSLELGKAIKQKLWEALCSQGAIS
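Also: lentivirally expressed fusions sorted by FACS into six bins by GFP to DsRed ratio, PSI derived from sequencing read proportions per bin multiplied by bin number.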

Variants of: B1
Test: protein stability index of a GFP-peptide fusion (GPS, HEK-293T) (PSI 1-6); higher = more stable
Conditions: c terminus: a fixed tail appended
Work on A22D yielded a protein stability index of 1.59.
A22R showed a protein stability index of 3.87.
Variant A22K has a protein stability index of 3.13.
For A22S, the protein stability index was 3.11.
Work on E15G yielded a protein stability index of 1.31.
With E15N the protein stability index was 3.
Work on E15R yielded a protein stability index of 3.18.
Work on E15W yielded a protein stability index of 1.9.
In the case of E15K, the protein stability index is reported as 2.73.
For E15C, the protein stability index was 3.
E15S gave a protein stability index of 2.19.
E15Q showed a protein stability index of 1.41.
For E15F, the protein stability index was 3.
E15H gave a protein stability index of 1.65.
E15P gave a protein stability index of 2.25.
For E15T, the protein stability index was 1.64.
In the case of S24Y, the protein stability index is reported as 3.7.
Work on S24R yielded a protein stability index of 2.69.
S24T gave a protein stability index of 1.83.
Work on S24Q yielded a protein stability index of 2.92.
Work on S24N yielded a protein stability index of 2.63.
For S24A, the protein stability index was 2.68.
S24H gave a protein stability index of 2.01.
G21F gave a protein stability index of 2.94.
With G21A the protein stability index was 4.53.
With G21N the protein stability index was 3.07.
For G21D, the protein stability index was 1.94.
G21I gave a protein stability index of 4.15.
Variant L17G has a protein stability index of 2.05.
L17T gave a protein stability index of 2.26.
Variant L17A has a protein stability index of 1.25.
L17V showed a protein stability index of 3.22.
Work on L17C yielded a protein stability index of 3.17.
Variant L17I has a protein stability index of 2.85.
L17F gave a protein stability index of 2.17.
L17E showed a protein stability index of 1.69.
Variant L17K has a protein stability index of 2.11.
In the case of L17H, the protein stability index is reported as 1.47.
For L17Y, the protein stability index was 2.06.
Work on L17N yielded a protein stability index of 1.86.
With L17P the protein stability index was 2.08.
L17Q gave a protein stability index of 1.87.
L17M gave a protein stability index of 2.88.
With L17S the protein stability index was 2.41.
L17R showed a protein stability index of 2.25.
In the case of L17D, the protein stability index is reported as 2.62.
In the case of L17W, the protein stability index is reported as 1.19.
For Q20N, the protein stability index was 1.62.
Q20E showed a protein stability index of 2.79.
In the case of Q20I, the protein stability index is reported as 2.97.
For Q20G, the protein stability index was 3.45.
In the case of Q20V, the protein stability index is reported as 2.58.
In the case of Q20R, the protein stability index is reported as 2.99.
Work on Q20P yielded a protein stability index of 2.21.
In the case of Q20F, the protein stability index is reported as 1.95.
L13W showed a protein stability index of 1.94.
In the case of L13Y, the protein stability index is reported as 1.56.
Work on L13T yielded a protein stability index of 1.88.
Variant L13S has a protein stability index of 2.24.
With L13R the protein stability index was 2.05.
S19A gave a protein stability index of 4.18.
For S19R, the protein stability index was 2.46.
S19D showed a protein stability index of 1.88.
In the case of S19F, the protein stability index is reported as 2.56.
In the case of S19C, the protein stability index is reported as 2.31.
S19Q gave a protein stability index of 1.95.
Work on S19N yielded a protein stability index of 3.94.
W14Q gave a protein stability index of 1.83.
W14T gave a protein stability index of 1.98.
In the case of W14E, the protein stability index is reported as 2.52.
Variant W14I has a protein stability index of 3.71.
In the case of W14L, the protein stability index is reported as 3.37.
W14H gave a protein stability index of 1.34.
With W14V the protein stability index was 3.18.
W14G gave a protein stability index of 3.06.
In the case of W14C, the protein stability index is reported as 1.62.
For W14D, the protein stability index was 3.34.
In the case of W14A, the protein stability index is reported as 1.06.
Variant W14K has a protein stability index of 2.
With W14M the protein stability index was 2.24.
In the case of W14P, the protein stability index is reported as 3.34.
With W14S the protein stability index was 1.85.
With W14N the protein stability index was 2.21.
Work on W14Y yielded a protein stability index of 1.78.
For I23S, the protein stability index was 2.85.
For I23A, the protein stability index was 1.75.
In the case of I23M, the protein stability index is reported as 2.22.
For I23P, the protein stability index was 1.6.
I23H showed a protein stability index of 1.63.
For I23E, the protein stability index was 2.37.
I23N showed a protein stability index of 1.7.
For I23D, the protein stability index was 1.62.
C18S gave a protein stability index of 1.91.
Work on C18A yielded a protein stability index of 1.69.
C18K gave a protein stability index of 4.02.
In the case of C18N, the protein stability index is reported as 3.44.
C18E showed a protein stability index of 2.17.
C18F showed a protein stability index of 1.64.
Variant C18G has a protein stability index of 1.53.
In the case of C18M, the protein stability index is reported as 2.12.
Variant C18H has a protein stability index of 1.66.
Work on C18Y yielded a protein stability index of 2.52.
C18V gave a protein stability index of 2.29.
Work on C18I yielded a protein stability index of 3.32.
C18P gave a protein stability index of 2.26.
For C18D, the protein stability index was 2.09.
A16C gave a protein stability index of 2.24.
For A16G, the protein stability index was 2.26.
With A16D the protein stability index was 1.98.
For A16R, the protein stability index was 2.1.
Variant A16P has a protein stability index of 2.3.
In the case of A16H, the protein stability index is reported as 1.83.
For A16L, the protein stability index was 1.77.
In the case of A16Y, the protein stability index is reported as 1.89.
A16N showed a protein stability index of 1.29.
A16E gave a protein stability index of 1.74.
A16T gave a protein stability index of 3.32.
With A16Q the protein stability index was 1.89.
Variant A16S has a protein stability index of 2.54.
A16M gave a protein stability index of 2.69.
Variant A16W has a protein stability index of 2.4.
